Experimental findings from article PMC6697681, “The predominance of nucleotidyl activation in bacterial phosphonate biosynthesis” (Nature Communications, 2019) are described below.

Substrate in this data set: NCCP(=O)(O)O
The data set can be described thus: purified protein. The note with it: saturating CTP (4 mM), 7 mM MgCl2, room temperature.

A word on the Km: it is the concentration of substrate that gives half-maximal velocity.

Description: coupled pyrophosphate release assay (EnzChek, MESG/PNP), initial rates on Tde-PntC (Tde1415)

B1: Tde-PntC (Tde1415) (Treponema denticola ATCC 35405) (protein)
chain: MIKQAVILAGGLGSRLKDKTKTMPKGFLEIGGTAIVEQSVQKLLAHGIEKIVIGTGHCNEYYDNLAKKYPAIITVKNENYANTGSMGTLEVCASFVNESFLLLESDLIYDSAGLFSLINDERKNLILASGATKSGDEVYLEADEKNCLTGLSKNRDALKNIFGELVGITKLTKSTLDKMCAYAKIHHSDLPKMEYEHALLEAAKTIPVAIKRIEYFVWREIDNEDHLEMAVKNIYPHIVENEKLRAVRREVLLNPGPATTTDSVKYAQVSADICPREKAFGDLMQWLCDELKLFALASETNPDEYETVMFGCSGTGADEVMVSSCVPDTGRLLVIDNGSYGARMAKIADIYKIPMDIFKSSTYEPLDLQKLEAEFATKKYTHLACVYHETTTGLLNPLHIICPMAKKYGMVTIVDAVSAYCGMPMDLKSLGIDFMASTSNKNIQGMAGVGFVICNKAELEKTKDYPMRNYYLNLYDQYAYFAKTHQTRFTPPVQTMYALRQAVLETKQETVQKRYERYTACWNILVAAIKKLGLKMLVKEEHQSHFITAILEPETPKYSFEALHDFAAEHSFTIYPGKLGNIDTFRIANIGDIQPEEMRRFTVKLKEYMNGIGVGV
Regarding B1, the Km stood at 16 ± 5 µM.
